# Entries after “also recorded” stand apart in the source; their conditions may differ. Where a SMILES comes first, the peptide text is derived from it. Where no end group is shown, it is not given here. [ ]: non-standard residue; d: D form. ξ: configuration not given here. ξGly(decyl) = CCCCCCCCCCC(N)C(=O)O; 2Adod = 2-amino-dodecanoic acid
# How the values were obtained:
# K562 cells = experiment: Specific cytotoxicity of Calcein-AM stained K562 cells in PBMC co-culture; format: cell-based; conditions: PBMC pre-treated 0.08-1.25 μM 48 hrs, 5:1 ratio, 4 hrs; greater than IFN-α 2A; data not shown
# Method: In brief, PBMC were incubated for 48 hrs then co-cultured together with Calcein AM stained K562 cells stimulated with or without human recombinant IFN-α 2A (5 ng/mL) for 4 hrs. Supernatants were assessed for Calcein green fluorescence intensity using the GloMax® Discover and percentage specific cytotoxicity was calculated. Data shown indicates mean percentage specific cytotoxicity +/− SEM, n=4. Data were analysed by paired t test in comparison to the vehicle control, *p<0.05.
# PBMC were also pre-treated with or without the Lck activating polypeptides RSKAKNPLY-RRRRRRRRR (SEQ ID NO: 24, IK14800), RVKVKVVVV-RRRRRRRRR (SEQ ID NO: 58, IK15800), RSKAKNPLY-RRRRRRRRR-(2Adod)4-NH2 (SEQ ID NO: 65, IK14804) and RVKVKVVVV-RRRRRRRRR-(2Adod)4-NH2 (SEQ ID NO: 66, IK15804) (0.08-1.25 μM) for 48 hrs, then co-cultured with Calcein AM stained K562 cells at a 5:1 ratio and incubated for a further 4 hrs. Supernatants were assessed for Calcein green fluorescence intensity using the GloMax® Discover and percentage specific cytotoxicity was calculated. Data shown indicates mean percentage specific cytotoxicity +/− SEM, n=4. Data were analysed by repeated measures two-way ANOVA with Holm-Sidak's post-test comparing peptide treatment with vehicle control, *p<0.05, **P<0.01, ***P<0.001, ****p<0.0001.
# Lck [1] = molecular target: T1, Lck (Homo sapiens, UniProt P06239); experiment: Lck Activity above control (1 µM) | Lck
# T1 construct: purchased Eurofins Pharma Discovery Services UK Limited
# Method: (§1) Table printed on a drawing sheet, FIG. 2
# Head of the field: Lck Activity above control (1 µM) | Lck
# (§2) First copying reader's note: Kinase activity above control for each Src family kinase at 1 µM peptide; the cell for IK00800/Fgr is printed as '%' without a digit.
# Where the first naming reader finds the target: head: Lck Activity above control (1 µM) | Lck
# Fgr = experiment: Lck Activity above control (1 µM) | Fgr
# Method: as §1
# Head of the field: Lck Activity above control (1 µM) | Fgr
# as §2
# Where the first naming reader finds the target: head: Lck Activity above control (1 µM) | Fgr
# Lck(h) = molecular target: T2, Lck(h) (Homo sapiens, UniProt P06239); experiment: Western blot of Lck phosphorylation (4G10 and anti-pY394 antibodies); format: biochemical; conditions: peptide 1 and 10 μM, with ATP, 40 minutes
# T2 construct: purchased Eurofins Pharma Discovery Services UK Limited
# Method: Western blot studies were performed by Eurofins Pharma Discovery Services UK Limited (Dundee, United Kingdom). […] Reactions were allowed to proceed for 40 minutes at room temperature before being stopped by the addition of SDS-sample buffer. In each case the Lck enzyme was diluted to yield 20 ng per 25 μl reaction. Appropriate controls in the absence of compound and peptide were also run as well as an untreated sample of both the Lck(h) and Lck(h) activated kinases. The resulting samples were then subjected to SDS-PAGE and western blot analysis using the antibodies 4G10 (anti-phospho-tyrosine antibody) (see FIG. 3) and anti-pY394 Lck (R&D Systems MAB7500) (see FIG. 2). An additional blot using the secondary detection antibody (anti-mouse-HRP) was also performed. The membranes were stained by Ponceau S to verify sample loading and effective protein transfer. The 4G10 antibody is a general anti-phospho-tyrosine antibody and there are several tyrosine residues in Lck but only one auto-phosphorylating tyrosine residue, i.e., at position Y394. […] Samples were as follows (numbers correspond to the lanes on the gel): • 1. Molecular weight markers • 2. Standard Lck • 3. Standard Lck+peptide substrate+ATP (no test peptide) • 4. Standard Lck−peptide substrate+ATP (no test peptide) • 5. Standard Lck+ATP+10Arg peptide (SEQ ID NO: 7, IK00100; 1 μM) (no peptide substrate) • 6. Standard Lck+ATP+10 Arg peptide (SEQ ID NO: 7, IK00100; 10 μM) (no peptide substrate) • 7. Standard Lck+ATP+8 Arg peptide (SEQ ID NO: 4, IK00800; 1 μM) (no peptide substrate) • 8. Standard Lck+ATP+8 Arg peptide (SEQ ID NO: 41K00800; 10 μM) (no peptide substrate) • 9. 10 Arg (SEQ ID NO: 7, IK00100) (10 μM) (test peptide only) • 10. 8 Arg (SEQ ID NO: 4, IK00800) (10 μM) (test peptide only)
# The steps of the western blot protocol were as below: • SDS-PAGE gel: 50 minutes at 200V • Western blot transfer: 90 minutes at 25V • Membrane: Nitrocellulose Pre-Cut Blotting Membranes 0.2 μm pore size (LC2000 (Life Tech)) • Ponceau stain: 0.1% Ponceau S (w/v) in 5% acetic acid • The membrane was blocked with 10 mL PBST and 10% BSA for 1 hour before application of primary and secondary antibodies. Primary Antibodies: • 1. Anti-4G10 (Millipore 05-777) 1/1000 in PBST with overnight incubation at 4° C. followed by washing with 4×20 mL PBST. • 2. Anti-pY394 Lck (R&D Systems) 1/2500 in PBST with overnight incubation at 4° C. followed by washing with 4×20 mL PBST. Secondary Antibody:
# Anti-mouse-hrp (Sigma A5278) 1/5000 in PBST followed by washing with 4×20 mL PBST for 5 hours on a spiral shaker at room temperature. Detection was performed via SuperSignal ELISA Pico Chemiluminescent Substrate—37070 (Pierce).
# Lck [2] = molecular target: T1, Lck; experiment: In vitro Lck activation kinase study (Eurofins); format: biochemical; conditions: for Lck activation (in words): peptide 1 μM where stated
# Method: The ability of polypeptides of the present invention to activate Lck was examined in vitro. Lck is member of the Src family of tyrosine kinases. […] All results in are percentage Lck activity relative to control (100%).
# Test polypeptides were assessed at a concentration of 1.0 μM.
# The ability of polypeptides of the present invention to activate Src family kinases was examined in vitro. Kinase activation studies utilising peptides were carried out as described in Example 1, and all kinase activity values are shown as percentage relative to control.
# The ability of polypeptides comprising both lysine and arginine to activate Lck in vitro was examined. Lck activation studies utilising peptides were carried out as described in Example 1, and all kinase activity values are shown as percentage relative to control.
# wild-type Jurkat cells = experiment: IL-2 secretion in stimulated wild-type Jurkat cells (ELISA); format: cell-based, human; conditions: biotinylated anti-CD3, anti-CD28, avidin; 48 h exposure
# Method: In brief, wild-type Jurkat cells (an immortalised line of human T lymphocyte cells) were stimulated by exposure to biotinylated anti-CD3 antibody in the presence of anti-CD28 antibody and avidin. During the culture period (48 hours or 72 hours) cells were exposed to test polypeptides. Cell supernatant was assayed for IL-2 at the end of 48 or 72 hours using a standard commercially available ELISA kit as described above.
# In brief, cells were seeded at 1 million cells per well (12 well plate, 2 mL volume) and stimulated with Biotin-CD3, CD28, and avidin (5:5:1.25 μg). The cells were then treated with IK14804, and then incubated for 48 hours at 37° C. The supernatant (100 uL, n=3), was then analyzed for IL-2 content.
# In brief, wild-type Jurkat cells (am immortalised line of human T lymphocyte cells) were stimulated by exposure to biotinylated anti-CD3 antibody in the presence of anti-CD28 antibody and avidin. Cells were seeded at 1 million cells per well (12 well plate, 2 mL volume) and stimulated with Biotin-anti-CD3, anti-CD28, and avidin (5:5:1.25 μg). Cells were treated with the test peptides and then incubated for 48 hours at 37° C. The supernatants (100 ul, n=3), were then analysed for IL-2 and IL-12 content. During the culture period (48 hours) cells were exposed to test polypeptide RSKAKNPLYR-(2Adod)4-NH2 (SEQ ID NO: 128). Cell supernatant was assayed for IL-2 and IL-12 at the end of 48 hours using standard commercially available ELISA kit as described above.
# T1 sequence (P06239 whole entry): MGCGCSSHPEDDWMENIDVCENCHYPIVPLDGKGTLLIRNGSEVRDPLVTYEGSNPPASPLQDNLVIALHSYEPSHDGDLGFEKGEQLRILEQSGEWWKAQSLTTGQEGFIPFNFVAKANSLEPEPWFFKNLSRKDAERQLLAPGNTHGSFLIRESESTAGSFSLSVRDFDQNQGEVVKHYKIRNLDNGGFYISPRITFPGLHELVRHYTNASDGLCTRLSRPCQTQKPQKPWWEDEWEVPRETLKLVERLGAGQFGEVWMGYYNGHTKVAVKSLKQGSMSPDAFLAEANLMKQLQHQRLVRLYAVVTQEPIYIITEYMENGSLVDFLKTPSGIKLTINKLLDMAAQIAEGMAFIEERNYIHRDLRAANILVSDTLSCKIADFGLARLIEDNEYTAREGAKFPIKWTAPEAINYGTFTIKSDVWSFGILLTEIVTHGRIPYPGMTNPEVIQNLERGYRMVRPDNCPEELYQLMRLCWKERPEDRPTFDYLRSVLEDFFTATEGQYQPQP
# T2 sequence (P06239 whole entry): as above
compound,measurement,setting,value
"CCCCCCCCCCC(NC(=O)C(CCCCCCCCCC)NC(=O)C(CCCCCCCCCC)NC(=O)C(CCCCCCCCCC)NC(=O)[C@H](CCCNC(=N)N)NC(=O)[C@H](CCCNC(=N)N)NC(=O)[C@H](CCCNC(=N)N)NC(=O)[C@H](CCCNC(=N)N)NC(=O)[C@H](CCCNC(=N)N)NC(=O)[C@H](CCCNC(=N)N)NC(=O)[C@H](CCCNC(=N)N)NC(=O)[C@H](CCCNC(=N)N)NC(=O)[C@H](CCCNC(=N)N)NC(=O)[C@H](Cc1ccc(O)cc1)NC(=O)[C@H](CC(C)C)NC(=O)[C@@H]1CCCN1C(=O)[C@H](CC(N)=O)NC(=O)[C@H](CCCCN)NC(=O)[C@H](C)NC(=O)[C@H](CCCCN)NC(=O)[C@H](CO)NC(=O)[C@@H](N)CCCNC(=N)N)C(N)=O (stereo partly shown) [IK14804, RSKAKNPLYR-RRRRRRRR-(2Adod)4-NH2] (H-RSKAKNPLYRRRRRRRRR[ξGly(decyl)][ξGly(decyl)][ξGly(decyl)][ξGly(decyl)]-NH2)",percentage of specific cytotoxicity,K562 cells,increased the percentage of specific cytotoxicity
"CCCCCCCCCCC(NC(=O)C(CCCCCCCCCC)NC(=O)C(CCCCCCCCCC)NC(=O)C(CCCCCCCCCC)NC(=O)[C@H](CCCNC(=N)N)NC(=O)[C@H](CCCNC(=N)N)NC(=O)[C@H](CCCNC(=N)N)NC(=O)[C@H](CCCNC(=N)N)NC(=O)[C@H](CCCNC(=N)N)NC(=O)[C@H](CCCNC(=N)N)NC(=O)[C@H](CCCNC(=N)N)NC(=O)[C@H](CCCNC(=N)N)NC(=O)[C@H](CCCNC(=N)N)NC(=O)[C@@H](NC(=O)[C@@H](NC(=O)[C@@H](NC(=O)[C@@H](NC(=O)[C@H](CCCCN)NC(=O)[C@@H](NC(=O)[C@H](CCCCN)NC(=O)[C@@H](NC(=O)[C@@H](N)CCCNC(=N)N)C(C)C)C(C)C)C(C)C)C(C)C)C(C)C)C(C)C)C(N)=O (stereo partly shown) [IK15804, RVKVKVVVVR-RRRRRRRR-(2Adod)4-NH2] (H-RVKVKVVVVRRRRRRRRR[ξGly(decyl)][ξGly(decyl)][ξGly(decyl)][ξGly(decyl)]-NH2)",percentage of specific cytotoxicity,K562 cells,increased the percentage of specific cytotoxicity
HHHHHHHHHH [10His],Lck Activity above control (1 µM) | Lck,Lck [1],0%
same,Lck Activity above control (1 µM) | Fgr,Fgr,0%
KKKKKKKKKK [10Lys],Lck Activity above control (1 µM) | Fgr,Fgr,0%
RRRRRRRR [IK00800] [listing 1 of 2 here],Lck Activity above control (1 µM) | Lck,Lck [1],126%
RRRRRRRR [IK00800] [listing 2 of 2 here],phosphorylation at Y394 of Lck (anti-pY394 antibody),Lck(h); listed as 8 Arg,significant increase in the level of phosphorylation
same,level of phosphorylation on Lck (anti-phospho tyrosine 4G10 antibody),Lck(h); listed as 8Arg,significant increase in the level of phosphorylation; also recorded: increased with increasing concentrations
same,phosphorylation at Y394 of Lck (anti-pY394 antibody),Lck(h); listed as 8Arg,Increased auto-phosphorylation was associated with increasing concentration
RRRRRRRRRR [IK00100] [listing 1 of 2 here],Lck Activity above control (1 µM) | Lck,Lck [1],389%
same,Lck Activity above control (1 µM) | Fgr,Fgr,0%
RRRRRRRRRR [IK00100] [listing 2 of 2 here],phosphorylation at Y394 of Lck (anti-pY394 antibody),Lck(h); listed as 10 Arg,significant increase in the level of phosphorylation
same,level of phosphorylation on Lck (anti-phospho tyrosine 4G10 antibody),Lck(h); listed as 10Arg,significant increase in the level of phosphorylation; also recorded: increased with increasing concentrations
same,phosphorylation at Y394 of Lck (anti-pY394 antibody),Lck(h); listed as 10Arg,Increased auto-phosphorylation was associated with increasing concentration
RSKAKNPLY [IK94000],Lck activation (in words),Lck [2],no Lck activation
same,Lck activation (in words),Lck [2]; listed as IK09400,do not activate Lck
same,IL-2 secretion relative to control,wild-type Jurkat cells,increase IL-2 secretion
RSKAKNPLY-RRRRRRRRR-NH2 (RSKAKNPLYRRRRRRRRR-NH2) [IK14800],Lck Activity above control (1 µM) | Lck,Lck [1],578%
same,Lck Activity above control (1 µM) | Fgr,Fgr,0%
RSKAKNPLYR (RSKAKNPLYR-{2Adod-2Adod-2Adod-2Adod-NH2}) [IK14000],Lck activation (in words),Lck [2],do not activate Lck
same,Lck activation (in words),Lck [2]; listed as RSKAKNPLYR,no Lck activation
same,IL-2 secretion relative to control,wild-type Jurkat cells,increase IL-2 secretion
"RSKAKNPLYRRRRRRRRR-NH2 [IK14800, RSKAKNPLY-RRRRRRRRR-NH2]",Lck activation,"Lck [2]; peptide 1 μM, relative to control",496%
same,percentage of specific cytotoxicity,K562 cells,increased the percentage of specific cytotoxicity
RVKVKVVVV-RRRRRRRRR (RVKVKVVVVRRRRRRRRR) [IK15800],Lck Activity above control (1 µM) | Lck,Lck [1],593%
same,Lck Activity above control (1 µM) | Fgr,Fgr,0%
"RVKVKVVVVRRRRRRRRR-NH2 [IK15800, RVKVKVVVV-RRRRRRRRR]",percentage of specific cytotoxicity,K562 cells,increased the percentage of specific cytotoxicity
rskaknplyrrrrrrrrr ([dR][dS][dK][dA][dK][dN][dP][dL][dY][dR][dR][dR][dR][dR][dR][dR][dR][dR]) [IKD14800],Lck Activity above control (1 µM) | Fgr,Fgr,0%
